According to the nanobody polyreactivity screen of Harvey et al. (2022):

Assay: yeast display, Sf9 membrane polyspecificity reagent, FACS + sequencing; frameworks hold sequencing errors
How it was run: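 Polyreactivity labels are assigned by the sorting gate from which each nanobody was recovered. The gates were low and high (top ~1%), set on anti-HA fluorescence for expression and streptavidin fluorescence for reagent binding. Before sorting, galactose-induced (36–48 hours) yeast display cells were stained for 1 hour at 4 °C with 10% biotinylated, detergent-solubilized Sf9 membrane reagent.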

| Sequence | polyreactivity (PSR sort gate) |
| --- | --- |
| QVQLVESGGGLVQAGGSLRLSCASSGNIFDRYAMGRYRPAPGKERELVAGITWSGGSTNYADSVKGRFTISRDNAKNTVYLQMNSLKPEDTAVYYCGQANYYWGQGSQVTVSS | low polyreactivity |
| QVQLVESGGGLVQAGGSLRLSCASSGNTFIENAMGWYRQAPGKERELVAAIDTGGSTYYADSVKGRFTISRDNAKNTVYLQMNSLKPEDSAVYYCTAVGLYLYRYIFGYLGKIGPGYDYWGQGTQVSVSS | low polyreactivity |
| QVQLVESGGGLVQAGGSLRLSCASSGPIFVYKVKGWYRQAPGKERELVAAISWGTGSTYADSVKGRFTISRDNAKNTVYLQMYSLKPEDTAVYYCAAESFIPPYDHWGQGTQVTGSS | low polyreactivity |
| QVQLVESGGGLVQAGGSLRLSCASSGRIFDGNAMGWYRQAPGKERELVAAISWTGGSTYYADSVKGRFTISRDNAKNTVYLQMYSLKPVDTAVYYCAADSGWWLDQWSWYDYWGLGTQVTVSS | low polyreactivity |
| QVQLVESGGGLVQAGGSLRLSCASSGRIFDSNTMGWYRQAPGKERELVAAINWSDGSTYYADSVKGRFTISRDNAKYTVFLQMNSLKPEDTAVYYCNAGARRYLYDYWVQGTQVTVSS | low polyreactivity |
| QVQLVESGGGLVQAGGSLRLSCASSGRIFGGYAMGWYRQAPGTELELVAAISSGGSTYYADSVKGRFTISRDNAKNTVYLQMNSLKPEDTAVYYCYAYYPWRWGSYPFDYWGQGTQVTVSS | high polyreactivity |
| QVQLVESGGGLVQAGGSLRLSCASSGRIFSWYTMGWNRQAPGKVSELVPVITSGGTTKYADSEKGRFTISRDNAKNTVYLQMNSLKPEDTAVYYCNVAGRDYAVRWGSFDYWGQGTQVTVSS | low polyreactivity |
| QVQLVESGGGLVQAGGSLRLSCASSGRIFWRNAMGWYRQAPGKERELVAAITSGGRTNYADSVKGRFTISRDNAKNPVYLQMNSLKPEDTAVYYCNALWRGRYGYWGQGTQVTVSS | high polyreactivity |
| QVQLVESGGGLVQAGGSLRLSCASSGRIFWTYAMGWYRQAPGKERELVAAITSGGSTYYADSVKGRFTISRDKAKNTVYLQMNSLKPEDTAVLYCAATSYYYNFLEHDYWGQGTQVTVSS | high polyreactivity |
| QVQLVESGGGLVQAGGSLRLSCASSGRIFYYNTMGWYRQAPGKERELVAAINWSGTSTYYADSVKGRFTISRDNAKNTVYLQMNSLKPEDTAVYYCAAYYRYRVTYDYYYWGQGTQVTVSS | high polyreactivity |
| QVQLVESGGGLVQAGGSLRLSCASSGRNFGYDGMGWYRQAPGKERELVAAITYRGGSTYYADSVKGRFTISRDNAKNTVYLQMNSLKPEDTAVYYCAADGYSHYRYLYDYWGQGTQVTVSS | low polyreactivity |
| QVQLVESGGGLVQAGGSLRLSCASSGRNFRGYAMGWYRQAPGKEREFVAAITKNGGSTYYADSVKGRFTISRDNAKNTVYLQMNSLKPEDTAVYYCAVRAWDPYTGKSDYWGQGTQVTVSS | low polyreactivity |
| QVQLVESGGGLVQAGGSLRLSCASSGRTFGINAMGWYRQAPGKERELVAVISFGDGGTYYADSVKGRFTISRDNAKNTVYLQMNSLNPEDSAVYYCATDYQSTSVWGGHFVINPYDYWGQGTQVTVSS | low polyreactivity |
| QVQLVESGGGLVQAGGSLRLSCASSGRTFNPYAMGWYRQAPGKERELVAAISRSGGGTYYADSVKGRCTISRDNAKNTVYLQMNSLKPEDTAVYYCNADRATCWEQWWYDNWGQGTQVTVSS | low polyreactivity |
| QVQLVESGGGLVQAGGSLRLSCASSGRTFSYYALGWSRQAPGKERELVAAITSGGSTYYADSVKGRFTISRDNAKNTVYLQMNSLKPEDTAVYYCAADPGDDYWGQGTQVTVSS | low polyreactivity |
| QVQLVESGGGLVQAGGSLRLSCASSGRTFSYYAMGWYRQAPGKERELVAAISTSGGSTYYADSVKGRFTISRDNAKNTVYLQMNSLKPEDTAVYYWAASPYLRFLYGGFGYWGQGTEVTVSS | high polyreactivity |
| QVQLVESGGGLVQAGGSLRLSCASSGRTSLNYAMGWYRQAPGKDRELVAAITSGGGGTYYADSVKGRFTISRDNAKNTVYLQMYRLKPEVTALYYCGAKFPARRKLSKVGFDYWGQGTQVSVSS | high polyreactivity |
